Measurements taken from patent US7265267.

Target: CDK complexes from A. thaliana purified on p13suc1 sepharose beads
Assay: cell-based or functional assay

- CDK activity measured using histone H1 as substrate, compared to a control sample without FL66; 10 nM FL66 (% of the control): 82
- CDK activity measured using histone H1 as substrate, compared to a control sample without FL66; 100 nM FL66 (% of the control): 74
- CDK activity measured using histone H1 as substrate, compared to a control sample without FL66; 1 uM FL66 (% of the control): 56
- CDK activity measured using histone H1 as substrate, compared to a control sample without FL66; 10 uM FL66 (% of the control): 12
- kinase activity of the CDK fraction bound to p13suc1 beads, FL66 added prior to washing of the beads; 0.1 uM FL66 (% of the control): 81
- kinase activity of the CDK fraction bound to p13suc1 beads, FL66 added prior to washing of the beads; 10 uM FL66 (% of the control): 35
B1: Purified recombinant FL66 protein (E. coli, FL66pET21d), starting at methionine 11 (protein)
chain: MEVSKATAPSPGVRTRAAKTLALKRLNSSAADSALPNDSSCYLQLRSRRLEKPSSLIEPKQPPRVHRSGIKESGSRSRVDSVNSVPVAQSSNEDECFDNFVSVQVSCGENSLGFESRHSTRESTPCNFVEDMEIMVTPGSSTRSMCRATKEYTREQDNVIPTTSEMEEFFAYAEQQQQRLFMEKYNFDIVNDIPLSGRYEWVQVKP
